Test results taken from paper PMC11035591, “Structural insights into the transporting and catalyzing mechanism of DltB in LTA D-alanylation” (Nature Communications, 2024).

Experiments:
[1] = biological target: T1, Streptococcus thermophilus DltB (Streptococcus thermophilus), Q5M4V4; assay: cryo-EM structure; DltB tetramer (10 mg/mL) incubated with the inhibitor m-AMSA (1:3 ratio) for 30 min; 3.23 Å; settings: remark: other sources report otherwise
T1 chain: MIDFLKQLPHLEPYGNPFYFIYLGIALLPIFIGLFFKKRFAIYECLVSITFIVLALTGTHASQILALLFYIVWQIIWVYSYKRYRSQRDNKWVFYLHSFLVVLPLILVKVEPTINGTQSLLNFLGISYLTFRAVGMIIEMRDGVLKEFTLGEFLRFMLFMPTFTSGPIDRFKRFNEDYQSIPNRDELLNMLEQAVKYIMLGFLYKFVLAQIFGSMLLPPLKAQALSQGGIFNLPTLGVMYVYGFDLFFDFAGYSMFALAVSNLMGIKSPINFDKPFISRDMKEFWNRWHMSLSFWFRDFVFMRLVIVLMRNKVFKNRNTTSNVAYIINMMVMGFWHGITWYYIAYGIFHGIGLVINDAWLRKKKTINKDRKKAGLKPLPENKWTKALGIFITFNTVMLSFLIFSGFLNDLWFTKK

[2] = biological target: T1, Streptococcus thermophilus DltB …; assay: cryo-EM structure; DltB tetramer (10 mg/mL) incubated with purified DltC (1:1 ratio) for 30 min; 3.50 Å; settings: remark: other sources report otherwise
[3] = biological target: T1, Streptococcus thermophilus DltB …; assay: cryo-EM structure; apo DltB tetramer, about 10 mg/mL in β-DDM; 3.42 Å; settings: remark: other sources report otherwise
[4] = biological target: T1, Streptococcus thermophilus DltB …; assay: SEC; membrane with overexpressed DltB (wild type or mutant) mildly solubilised with 0.25% β-DDM, Superdex 200; fractions analysed by western blot (anti-His); settings: remark: other sources report otherwise
[5] = biological target: T2, Streptococcus thermophilus DltB (Streptococcus thermophilus, UniProt Q5M4V4 1-415); assay: cryo-EM structure; DltB tetramer (10 mg/mL) incubated with purified DltC (1:1 ratio) for 30 min; 3.50 Å; settings: both partners purified
T2 construct: the entire chain from Met1 to Lys415 was modelled in the cryo-EM maps ('intact DltB protein'); Homo-tetramer (dimer of dimers) by SEC, cross-linking and cryo-EM; purification also gave oligomer, dimer and monomer fractions; also called WT DltB; DltB tetramer; source: E. coli C41(DE3); purified (Triton X-100 solubilisation, Ni-NTA, Superdex 200 in 0.03% β-DDM); also unpurified in whole cells, on …
T2 sequence (looked up): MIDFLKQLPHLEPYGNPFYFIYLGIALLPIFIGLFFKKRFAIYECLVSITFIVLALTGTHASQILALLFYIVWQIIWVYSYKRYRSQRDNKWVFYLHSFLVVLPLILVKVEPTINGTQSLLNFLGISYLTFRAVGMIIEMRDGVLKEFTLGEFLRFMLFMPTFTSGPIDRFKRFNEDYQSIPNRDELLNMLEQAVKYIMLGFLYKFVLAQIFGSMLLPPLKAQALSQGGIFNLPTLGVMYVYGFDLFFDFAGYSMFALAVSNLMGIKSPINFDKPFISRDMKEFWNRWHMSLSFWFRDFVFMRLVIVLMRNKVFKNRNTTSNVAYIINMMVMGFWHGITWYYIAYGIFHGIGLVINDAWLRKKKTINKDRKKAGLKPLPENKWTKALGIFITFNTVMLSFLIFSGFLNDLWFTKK

Binder | stoichiometry N [1] | stoichiometry N [2] | stoichiometry N [3] | stoichiometry N [4] | binding result [5]
Streptococcus thermophilus DltB, Q5M4V4 1-415 (enzyme) MIDFLKQLPHLEPYGNPFYFIYLGIALLPIFIGLFFKKRFAIYECLVSITFIVLALTGTHASQILALLFYIVWQIIWVYSYKRYRSQRDNKWVFYLHSFLVVLPLILVKVEPTINGTQSLLNFLGISYLTFRAVGMIIEMRDGVLKEFTLGEFLRFMLFMPTFTSGPIDRFKRFNEDYQSIPNRDELLNMLEQAVKYIMLGFLYKFVLAQIFGSMLLPPLKAQALSQGGIFNLPTLGVMYVYGFDLFFDFAGYSMFALAVSNLMGIKSPINFDKPFISRDMKEFWNRWHMSLSFWFRDFVFMRLVIVLMRNKVFKNRNTTSNVAYIINMMVMGFWHGITWYYIAYGIFHGIGLVINDAWLRKKKTINKDRKKAGLKPLPENKWTKALGIFITFNTVMLSFLIFSGFLNDLWFTKK | 4 | 4 | 4 | 4 | –
Streptococcus thermophilus DltC (natural protein, DltC, D-alanyl carrier protein, Streptococcus thermophilus; Used without the 4'-phosphopantetheine (Ppant) modification on Ser35; Modified pET28a vector with a TEV cleavage site; also called DltC-ST; source: E. coli BL21(DE3), purified (Ni column, TEV cleavage, Resource Q)) MDVKAEVIEIIDELFMEDVSDMMDEDLFDAGVLDSMGTVELIVELESRFDIRVPVSEFGRDDWNTANKIVEGVTELRNA | – | – | – | – | binds
